{
  "source": "paper PMC2942778",
  "about": "(Biochemistry, 2010)",
  "target": "the molecule itself",
  "assay": "AUC",
  "data": [
    {"protein": "BlaI gene repressor (blaI gene product) of plasmid pI258 from S. aureus NRS128 (natural protein) MANKQVEISMAEWDVMNIIWGKKSVSANEIVVEIQKYKEVSDKTIRTLITRLYKKEIIKRYKSENIYFYSSNIKEDDIKMKTAKTFLNKLYGGDMKSLVLNFAKNEELNNKEIEELRDILNDISKK", "values": [
      {"measurement": "Kd", "result": "1610 ± 20", "unit": "nM"},
      {"measurement": "stoichiometry N", "result": 2}
    ]}
  ]
}
